Assay results from patent US20210403555A1 (JAPANESE FOUNDATION FOR CANCER RESEARCH, published 2021).
Residue numbers refer to the chain shown, from its start. Each block holds one binder with its values, some of them ahead of it.

Columns and labels:
[1] = molecular target: T1, Recombinant human podoplanin Fc chimera protein (R&D, 3670-PL) (human, UniProt Q86YL7 23-128); experiment: competition ELISA: inhibition of podoplanin-Fc binding to CLEC-2 on solid phase; positive control
T1 construct: Bought reagent; not shown: Fc part of the bought chimera (detected with anti-human IgG Fc)
T1 sequence (looked up): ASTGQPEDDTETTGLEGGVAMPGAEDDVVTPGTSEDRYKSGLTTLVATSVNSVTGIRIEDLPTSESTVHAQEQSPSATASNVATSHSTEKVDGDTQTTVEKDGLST
Source text: (§1) The culture supernatants collected in Production Examples 1 and 2 were used to measure the inhibitory activity against binding of podoplanin to CLEC-2, following the ELISA protocol described in Patent Document 1.
The mouse antibody PG4D2 (PG4D2) was used as a positive control. The mouse antibody PG4D2 is a monoclonal antibody that is obtained from the NITE P-02071 (PG4D2) hybridoma.

[2] = molecular target: T2, Peptide of the human podoplanin PLAG4 domain (WT-hPLAG4 (Genscript, 788349-1)) (human, UniProt Q86YL7 76-89, limits assumed); experiment: ELISA, PLAG4 peptide on solid phase, culture supernatant; the reference itself, set as 100%
T2 construct: domain: PLAG4 domain
T2 peptide (looked up): TGIRIEDLPTSEST
Source text: The culture supernatants collected in Production Examples 1 and 2 were used to measure the binding activity to the podoplanin PLAG4 domain, following the ELISA protocol described in Patent Document 1. A peptide of the human podoplanin PLAG4 domain (WT-hPLAG4 (Genscript, 788349-1)) as an antigen peptide was immobilized on a solid phase, and a preadsorbed goat biotin-conjugated anti-human IgG Fc antibody (Abcam, ab98618) and β-Gal-conjugated streptavidin (Roche Diagnostics, 11112481001) were used for a detection purpose.
The avidity (antibody titer) of each antibody was expressed relative to that of the mouse-human chimeric antibody chPG4D2, which is set as 100%.

[3] = molecular target: T1, Recombinant human podoplanin Fc chimera …; experiment: competition ELISA: inhibition of podoplanin-Fc binding to CLEC-2 on solid phase
Source text: as §1

IC50 [1]: 0.371 µg/mL
B1: Mouse antibody PG4D2 (antibody, V domains shown)
VH: DVQLVESGGGLVQPGGSRKLSCAASGFTFSGFGMLWVRQAPEKGLEWVAYISSVSSRIYYADTVKGRFTISRDNPKNTLFLQMTSLRSEDTAMYYCARESYGPAWFAYWGQGTLVTVSA
VL: DVLMTQTPLSLPVSLGDQASISCRSSQHIVHIDGNTYLEWYLQQPGQSPKLLIYKVSNRFSGVPDRFSGSGSGTDFTLRISRVEAEDLGVYYCFQGSHVPYTFGGGTKLEMK

Avidity (antibody titer) (%) relative to chPG4D2 [2]: 100%
IC50 [3]: 0.406 µg/mL
B2: Mouse-human chimeric antibody chPG4D2 (antibody, human IgG4 S228P, kappa, V domains shown)
VH: B1 VH
VL: DVLMTQTPLSLPVSLGDQASISCRSSQHIVHIDGNTYLEWYLQQPGQSPKLLIYKVSNRFSGVPDRFSGSGSGTDFTLRISRVEAEDLGVYYCFQGSHVPYTFGGGTKLEMKR

Continued, binder first:

B3: Humanized antibody K4 (antibody, human IgG4 S228P, kappa, V domains shown)
VH: EVQLVESGGGLVQPGGSLRLSCAASGFTFSGFGMLWVRQAPGKGLEWVAYISSVSSRIYYADTVKGRFTISRDNAKNSLYLQMNSLRAEDTAVYYCARESYGPAWFAYWGQGTLVTVSS
VL: DIVMTQSPLSLPVTPGEPASISCRSSQHIVHIDGNTYLEWYLQKPGQSPQLLIYKVSNRFSGVPDRFSGSGSGTDFTLKISRVEAEDVGVYYCFQGSHVPYTFGGGTKVEIKR
IC50 [3]: 0.36 µg/mL

B4: Humanized antibody K5 (antibody, human IgG4 S228P, kappa, V domains shown)
VH: B3 VH with A49S, A75S, S78T
VL: B3 VL
IC50 [3]: 0.364 µg/mL
